Experimental data from paper PMC5608764, “Aromatic side-chain conformational switch on the surface of the RNA Recognition Motif enables RNA discrimination”.

Assays:
CUG-BP2 RRM3 wild-type [1] = molecular target: T1, CUG-BP2 RRM3 wild-type (UniProt O95319 416-508, Y508W); experiment: NMR 15N-HSQC titration; 20 mM K phosphate pH 5.8, 10 mM NaCl, 0.1% beta-mercaptoethanol, 25 C (NMR titrations and ITC); hnRNP A1: 10 mM Na phosphate pH 6.5, 10 mM beta-mercaptoethanol; conditions: protein: recombinant
T1 sequence (O95319 416-508 Y508W): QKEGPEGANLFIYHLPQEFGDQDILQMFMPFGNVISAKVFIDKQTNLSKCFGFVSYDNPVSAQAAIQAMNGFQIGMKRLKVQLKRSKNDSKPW

CUG-BP2 RRM3 wild-type [2] = molecular target: T1, CUG-BP2 RRM3 wild-type; experiment: NMR 15N-HSQC titration; 25 C; multiple registers; 20 mM K phosphate pH 5.8, 10 mM NaCl, 0.1% beta-mercaptoethanol, 25 C (NMR titrations and ITC); hnRNP A1: 10 mM Na phosphate pH 6.5, 10 mM beta-mercaptoethanol; conditions: protein: recombinant
CUG-BP2 RRM3 wild-type [3] = molecular target: T1, CUG-BP2 RRM3 wild-type; experiment: ITC; 20 mM K phosphate pH 5.8, 10 mM NaCl, 0.1% beta-mercaptoethanol, 25 C (NMR titrations and ITC); hnRNP A1: 10 mM Na phosphate pH 6.5, 10 mM beta-mercaptoethanol; conditions: protein: recombinant
CUG-BP2 RRM3 F455A [4] = molecular target: T2, CUG-BP2 RRM3 F455A (UniProt O95319 416-508, F455A;Y508W); experiment: NMR 15N-HSQC titration; 20 mM K phosphate pH 5.8, 10 mM NaCl, 0.1% beta-mercaptoethanol, 25 C (NMR titrations and ITC); hnRNP A1: 10 mM Na phosphate pH 6.5, 10 mM beta-mercaptoethanol; conditions: protein: recombinant; tags: His-tag (pET28a)
T2 sequence (O95319 416-508 F455A/Y508W): as the sequence (O95319 416-508 Y508W) above, with F40A counted along it

CUG-BP2 RRM3 F426A = CUG-BP2 RRM3 F426A (UniProt O95319 416-508, F426A;Y508W); experiment: as above; conditions: protein: recombinant; tags: His-tag (pET28a)
CUG-BP2 RRM3 F426A, sequence (O95319 416-508 F426A/Y508W): as the sequence (O95319 416-508 Y508W) above, with F11A counted along it

CUG-BP2 RRM3 H429A [5] = molecular target: T3, CUG-BP2 RRM3 H429A (UniProt O95319 416-508, H429A;Y508W); experiment: as above; conditions: protein: recombinant; tags: His-tag (pET28a)
T3 sequence (O95319 416-508 H429A/Y508W): as the sequence (O95319 416-508 Y508W) above, with H14A counted along it

CUG-BP2 RRM3 Y428A [6] = molecular target: T4, CUG-BP2 RRM3 Y428A (UniProt O95319 416-508, Y428A;Y508W); experiment: as above; conditions: protein: recombinant; tags: His-tag (pET28a)
T4 sequence (O95319 416-508 Y428A/Y508W): as the sequence (O95319 416-508 Y508W) above, with Y13A counted along it

CUG-BP2 RRM3 Q497A = CUG-BP2 RRM3 Q497A (UniProt O95319 416-508, Q497A;Y508W); experiment: as above; conditions: protein: recombinant; tags: His-tag (pET28a)
CUG-BP2 RRM3 Q497A, sequence (O95319 416-508 Q497A/Y508W): as the sequence (O95319 416-508 Y508W) above, with Q82A counted along it

CUG-BP2 RRM3 K453A = CUG-BP2 RRM3 K453A (UniProt O95319 416-508, K453A;Y508W); experiment: as above; conditions: protein: recombinant; tags: His-tag (pET28a)
CUG-BP2 RRM3 K453A, sequence (O95319 416-508 K453A/Y508W): as the sequence (O95319 416-508 Y508W) above, with K38A counted along it

CUG-BP2 RRM3 K499A = CUG-BP2 RRM3 K499A (UniProt O95319 416-508, K499A;Y508W); experiment: as above; conditions: protein: recombinant; tags: His-tag (pET28a)
CUG-BP2 RRM3 K499A, sequence (O95319 416-508 K499A/Y508W): as the sequence (O95319 416-508 Y508W) above, with K84A counted along it

CUG-BP2 RRM3 K495A = CUG-BP2 RRM3 K495A (UniProt O95319 416-508, K495A;Y508W); experiment: as above; conditions: protein: recombinant; tags: His-tag (pET28a)
CUG-BP2 RRM3 K495A, sequence (O95319 416-508 K495A/Y508W): as the sequence (O95319 416-508 Y508W) above, with K80A counted along it

CUG-BP2 RRM3 wild-type [7] = molecular target: T1, CUG-BP2 RRM3 wild-type; experiment: NMR 15N-HSQC titration; protein mutant series; 20 mM K phosphate pH 5.8, 10 mM NaCl, 0.1% beta-mercaptoethanol, 25 C (NMR titrations and ITC); hnRNP A1: 10 mM Na phosphate pH 6.5, 10 mM beta-mercaptoethanol; conditions: protein: recombinant
CUG-BP2 RRM3 wild-type [8] = molecular target: T1, CUG-BP2 RRM3 wild-type; experiment: NMR 15N-HSQC titration; 25 C; RNA variant series; 20 mM K phosphate pH 5.8, 10 mM NaCl, 0.1% beta-mercaptoethanol, 25 C (NMR titrations and ITC); hnRNP A1: 10 mM Na phosphate pH 6.5, 10 mM beta-mercaptoethanol; conditions: protein: recombinant
CUG-BP2 RRM3 F455A [9] = molecular target: T2, CUG-BP2 RRM3 F455A; experiment: ITC; 25 C; 20 mM K phosphate pH 5.8, 10 mM NaCl, 0.1% beta-mercaptoethanol, 25 C (NMR titrations and ITC); hnRNP A1: 10 mM Na phosphate pH 6.5, 10 mM beta-mercaptoethanol; conditions: protein: recombinant; tags: His-tag (pET28a)
CUG-BP2 RRM3 H429A [10] = molecular target: T3, CUG-BP2 RRM3 H429A; experiment: as above; conditions: protein: recombinant; tags: His-tag (pET28a)
CUG-BP2 RRM3 Y428A [11] = molecular target: T4, CUG-BP2 RRM3 Y428A; experiment: as above; conditions: protein: recombinant; tags: His-tag (pET28a)
CUG-BP2 RRM3 wild-type [12] = molecular target: T1, CUG-BP2 RRM3 wild-type; experiment: as above; conditions: protein: recombinant

UUUAC (ssRNA) was tested. Which Kd (CUG-BP2 RRM3 wild-type [1]) did it give?
The Kd was 56 ± 8 µM.

UCUAA (ssRNA) was tested. Which Kd (CUG-BP2 RRM3 wild-type [1]) did it give?
The Kd was 76 ± 27 µM.

With UUUCA (ssRNA) as the binder, how does the Kd (CUG-BP2 RRM3 wild-type [1]) read?
Its Kd is 73 ± 13 µM.

Which Kd (CUG-BP2 RRM3 wild-type [1]) does the source give for UUCAA (ssRNA) here?
The Kd was 56 ± 12 µM.

For AUUUAAUU (ssRNA), which Kd (CUG-BP2 RRM3 wild-type [2]) is on record?
The Kd was 31 ± 9 µM.

With CUUAA (ssRNA) as the binder, how does the Kd (CUG-BP2 RRM3 wild-type [1]) read?
The Kd was 54 ± 9 µM.

Which Kd (CUG-BP2 RRM3 wild-type [3]) does the source give for UUUAA (ssRNA) here?
Its Kd is 18 µM.

And the Kd (CUG-BP2 RRM3 F455A [4])?
The Kd was 41 ± 5 µM.

And the Kd (CUG-BP2 RRM3 F426A)?
Its Kd is 139 ± 10 µM.

What about the Kd (CUG-BP2 RRM3 H429A [5]) of the same binder?
Its Kd is 30 ± 4 µM.

And the Kd (CUG-BP2 RRM3 Y428A [6])?
The Kd was 27 ± 3 µM.

What about the Kd (CUG-BP2 RRM3 Q497A) of the same binder?
The Kd was 60 ± 10 µM.

What about the Kd (CUG-BP2 RRM3 K453A) of the same binder?
The Kd was 78 ± 13 µM.

What about the Kd (CUG-BP2 RRM3 K499A) of the same binder?
Its Kd is 91 ± 18 µM.

What about the Kd (CUG-BP2 RRM3 K495A) of the same binder?
Its Kd is 63 ± 6 µM.

And the Kd (CUG-BP2 RRM3 wild-type [7])?
Its Kd is 62 ± 12 µM.

And the Kd (CUG-BP2 RRM3 wild-type [8])?
Its Kd is 66 ± 14 µM.

What does the source list for UGUGU (ssRNA)?
Kd (CUG-BP2 RRM3 F455A [9]): 10.4 ± 0.87 µM; Kd (CUG-BP2 RRM3 H429A [10]): 0.27 ± 0.05 µM; Kd (CUG-BP2 RRM3 Y428A [11]): 0.31 ± 0.01 µM; Kd (CUG-BP2 RRM3 wild-type [12]): 1.04 ± 0.04 µM
